In patent US20070014786A1 (RINAT NEUROSCIENCE, published 2007):

B1: mouse anti-trkC agonist monoclonal antibody 2256 (antibody, V domains shown)
VH: QVQLQQPGAELVKPGASVKLSCKASGYTFTSYWMHWVKQRPGQGLEWIGEIYPSNGRTNYNEKFKSKATLTVDKSSSTAYMQLSSLTSEDSAVYYCARKYYYGNSYRSWYFDVWGAGTTLTVS
VL: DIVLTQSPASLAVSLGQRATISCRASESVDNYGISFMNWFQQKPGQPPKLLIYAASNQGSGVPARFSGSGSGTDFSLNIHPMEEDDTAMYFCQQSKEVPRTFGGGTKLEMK
B2: humanized anti-trkC agonist antibody A5 (antibody, V domains shown)
VH: QVQLVQSGAEVKKPGASVKVSCKASGYTFTSYRIHWVRQAPGQGLEWMGEIYPSNARTNYNEKFKSRVTMTRDTSTSTVYMELSSLRSEDTAVYYCARKYYYGNTRRSWYFDVWGQGTTVTVS
VL: DIQMTQSPSSLSASVGDRVTITCRASESIDNYGISFLAWYQQKPGKAPKLLIYAASNRGSGVPSRFSGSGSGTDFTFTISSLQPEDIATYYCQQSKTVPRTFGQGTKLEIKR

Columns and labels:
human trkC [1] = target: T1, human trkC (human, UniProt Q16288 32-429, limits assumed); experiment: BIAcore (SPR); format not stated
T1 construct: also called htrkC

rat trkC = rat trkC (rat, UniProt Q03351 32-429, limits assumed); experiment: BIAcore (SPR); format not stated; rat trkC
human trkC [2] = target: T1, human trkC; experiment: BIAcore (SPR); format not stated; human trkC

Row | Binder | Kd (human trkC [1]) | Kd (rat trkC) | Kd (human trkC [2])
1 | B1 | ~40 nM |  | 
2 | B2 |  | ~19 nM | ~0.28 nM
